Data reported in the DeepSol protein solubility set.

test: soluble on expression in E. coli; label from the status in PepcDB or PDB records

Sequence | soluble on expression in E. coli
MGSDKIHHHHHHMKILIVGGSGGIGSAMVKDALARFQDAEVHATFCTDSTHTGCSHFSGVKWHRLDVTDEAGIKALSESFESLDWLINCVGMLHSGSKGPEKSLSQFDGEFFLHNMTLNTLPTLLLAKHFSARLKSSVSPRLAVLSARVGSISDNRLGGWYSYRASKAALNMLIKTLAVEWQRSLKGGVVLALHPGTTKTRLSEPFQANVPGDKLFLPERVAADLMDIIARAEVCDSGSFLAYDGATIPW | not soluble
MGSDKIHHHHHHMKINTSMLWEDKAKSEVTYTTYLIEKTPDIKNKNPRPAVIICGGGGFFKVTDREKEPVALYFLNKGFQAITLDYTVGKGSGYPKPLYDLAKMLLIVRENAQNWNIDTEKVIFIGFSAGATHSASLANSWNEPFLQKYFDYPGETLKPSLVILSYPLLDFNYQYEQVSVDPDNQMPTKLSPMPKIDFLTGALKTVVGKELTTENLKEYSPIEHISTATVPTFIWGMQDDDCIYNNALLEYAKRLKDNGILYELHMFALGEHGLSVINSNTQAKFSDYEELGIWKKLCIQFINRVLHLK | not soluble
MGSDKIHHHHHHMKISPLCPSCLLGRVYYEAKLVTDDEDLISQCVDESLKILAENYSSRPINAHLATRIHRRVYEILGVEDPYAEVKARANEVARQVLPLAKEIVEGSDDPFKTAVIVSIVGNNFDYGVQGHKVVEEEFRDFLKRKVQEGLKINDTERIKELSSGKVVYLTDNAGEIFFDTLLMKEIKRRCEKLTAVVRGRPIISDATIEDARLARVDKIADELLTNGKGAIGIIMDELPDETRKALEEADLIVAKGMANYECLSDGSLKPIAFLLTAKCEPVARDIGVNVGDMVAKVVE | soluble
MGSDKIHHHHHHMKKEDKTPSRLIQLGKIYRLIEQFEEISRIELSKLSGLAPASITSLSRSLIEKRLIMEKTSRNTDNRGRPAIALCVSPFYWQALCATLVEDRFEIILSELDGVIIEQSVFPLQKDDLECLDKFLVKSVKQFLAETHSLARPITFSVTVGGELDKNGYLIKLGCTKFAHLDLKSLFTPYFNIPILIAEYFKTWLLAESTLGNVINCDDVLFLQLDDEINLSVLSEGELLFSREQDKININHLIVPRLNELQALINHDLPEVERYQVQHQVTHRAIAQFIDALYPNRVFSNNSEKMNFLCEQIQLKDKNALRIIEHITDCLAYILMNLVHIFSARRVMLNSSLLQLKDFLLEQLNRKLKSYLVDNISTVSVIAGKYEWNSPIVAASAIKQGIYDGSLLTSLVKQEENIINF | not soluble
MGSDKIHHHHHHMKKFLENSIHQAIKACFFFLGKLPKKKLFIFESFHGKQYSDNPRAIFEYIRDNCPEYQCIWAVKKGYEMPFVEENVPFVKRLSWRWLWLMPRAQYWVFNTRMPAWMYKNQTTIYIQTWHGTPLKKLGLDIETVKMPEHETESYKLEVIQEAKRWDYLISPNAYSTRVFRQAFHYEGEILEIGYPRNDLLVCENKDKIAFSVRNQLGLAANKKIILYAPTWRDDESIRKGAYRFTNHLPVEQLLEIDSSIVILTRLHYLIAESFDISAFGSRVIDVSSYPDINQLYLIADLLITDYSSVMFDFALTKKPMLFFMYDKEKYQNSTRGFYFDPTAILPGKIVTDTDSLVTSVKNVLFSKTEQEQRLYVQFFREFCLENQDATRQLISEILKR | not soluble
MGSDKIHHHHHHMKKFYDEMHASGDKVREHYAGYERWLAQQPHESMKGHRDEAEMIFRRVGITFAVYGAKDEDGSGTERLIPFDLIPRIIPAQEWREMEKGLRQRVNALNRFIHDVYHDQEIIKAGIVPGEQVFKNAQFRPEMMGVDVPGNVYSQIAGIDIVRAANPDGSGNYYVLEDNLRVPSGVSYMLENRKMMMRLFPELFSSHRVAPVAHYPDLLLDTLRAVAPPGVAEPTVVVMTPGMYNSAYFEHAFLAQQMGVELVEGQDLFVKDNYLYMRTTQGPRRVDVIYRRIDDDFLDPKAFRADSTIGCAGLLSVYRAGNVNLCNAIGTGVADDKSIYPYVPKMIEFYLGEKPILNNVPTYLCRESEDLQYVLAHLGELVVKEVHGAGGYGMLVGPAASKAEIEEFRTQLVANPSNYIAQPTLALSTCPTFVESGIAPRHIDLRPFVLSGKTVQMVPGGLTRVALKEGSLVVNSSQGGGTKDTWMLEA | not soluble
MGSDKIHHHHHHMKKKNVIVFGGGTGLSVLLRGLKTFPVSITAIVTVADDGGSSGRLRKELDIPPPGDVRNVLVALSEVEPLLEQLFQHRFENGNGLSGHSLGNLLLAGMTSITGDFARGISEMSKVLNVRGKVLPASNRSIILHGEMEDGTIVTGESSIPKAGKKIKRVFLTPKDTKPLREGLEAIRKADVIVIGPGSLYTSVLPNLLVPGICEAIKQSTARKVYICNVMTQNGETDGYTASDHLQAIMDHCGVGIVDDILVHGEPISDTVKAKYAKEKAEPVIVDEHKLKALGVGTISDYFVLEQDDVLRHNASKVSEAILEGKPRTSSSIQ | not soluble
MGSDKIHHHHHHMKKRNITEFQVLSEIIRKQPHIKQKEIAENLGITVQAVSEHIRNLVKEGYVKSRGRGEYVVTEKGLRKLKNWISEFKDYLDEINTAVYRYKDIWPAIADEDVKDGETVYLFMKNGLLYASKQPKGEAKAKALYGGKKGEDIAICEIKGIIDVPKGKVIVFRIPPEVVGGSRAVDFNLIKENIDNLDDYVIATMGTVAYVVACKLGLKPDIRFAVPEAIVNACNRGCNVIALITGKMAEKVIKKLDNAKISYTVLDATKENK | not soluble
MGSDKIHHHHHHMKKVAIVILNWNGRKLMEEFLPSVVSNSPEWAEVIVADNGSTDDSIEMLKAKFPTVGIISFNQNYGFAEGYNQALKRLDHEYCVLLNSDVEVTPNWLDAPIATLDSDPSIACVQPKIRAQRNKEYFEYAGAAGGYIDKYGYPFCRGRILHIVEKDEGQYDTPAYILWATGACLFVRTATYKEVGGLDAGFFAHQEEVDMCWRLRSRGYRLVCVPQSIVYHVGGATLNAESPRKTFLNFRNSLLMLYKNSREADLKHVMRIRFWLDYIAAAKFLMEGHIQNAKAVYEARKAYHQLKPEYAPKRKENLEKSTLSTIPELMRDSLILAFYLKGKRTFKAIKDRR | not soluble
MGSDKIHHHHHHMKLEFTCGEEITIKEVNKLKLELMTSGKGDVEKELERLKKNKNKVHDIKTEETIDLLDRCAKLWLDDNYSKKHIETLAQITNQSFELVNYEFKSMMQMLLRENIQNTIKRELGEVDILDSWHKTNYGYEHRQPRGIIFHNISGNAFVVIPMSISMGLLSKNCNLVKVSKDEPYFAYAFYKSLCELDETVKDRLSVLYFDSSKTEIYDTIVKNSDGVIHWGGEYSSRIIGEMCAKYQKHMIMHGAKISFEVVDKCDDLNKVSEEIAKDIICWEQKACLSPRVVFLNDKIDVDEFSHCLSASLRKITEVIPKAYLSEWNSVKTIQDRQYCTLKYGMKNERRFKVYSSFNADYTVILSDGMPEKEDINKCFYRFIFVCPYSSKSDVVNYVSENLKDYLQTMGYSGNDEEFIEKMTLLGVSIVTKPGKMSLHEPGTSHDGIHNLKEFTFLVSRQI | not soluble
MGSDKIHHHHHHMKLHQGERVSFVKTIPSLQETEFSRLEERLCFAKHAHPTYSIGIMPLGLSLCQGEGETYFMGRHKVCVYHPGEEHTCVFEHTGGSWAYWNCYPKEEMLREYASEILGERGEPHFAKTVVEDPYAYRLFWELFDLVGKERELLALQEASLKAFSYLIAHHASPWHPSSRFLLMERAKITQAKERILEGDEVEKITLEELASLCGMSRFRFLRLFAKLEGMTPHRFLLMHKTQKAKRYLQEGCDISEAALLSGFCDQAHLSRTLRRFYGYTPRSLRS | not soluble
MGSDKIHHHHHHMKLHQLRALVAIHNAGSILEASKLMHITQPALSRSIKELEREVGFTLLQRSHKGMALTEEGKRVIRHANLVVESIRRLQIEAASIQDAALGAVSIGVTSLTAMLDGVDESILAFRRKYPRVKITITDLRPSQILQRLRDGSLDFAITSQQPLSRLSLDWEALGSIKGRVICHASNRQKFSQSLRTLQYAPWISLDELSDQASQFHQLFEANGLRVPQNTVECTSVMMALKLLKNTESLMTISELAVDQGFTYGIDCEFVAMAVQELIPDYPINLVCIDRHSLTAPAQELFHSLRGQVLKQTRPVGSEVVVHA | not soluble
MGSDKIHHHHHHMKLRNLLPLLGLMASAAHADAVTIQSCGVSQVFDKTPSRAITLNQQATEVMLALGLQEAMVGTAYIDDAIPAQWNDAYESVPVLAEKYPAAEVVLAQEPDFLFAGFGSAFSEDNLGAAEKWHDLGIGTYLVDASCKDKHLQDVPLTVAPIFEDIETVGKIFNVEDRANALIDTLQQRLDSVKAAPSGAGQTAFIYDSGAETPFSIGCCGGPALLASLTGLQSISSDVPGTWVDLSWEHVVAADPDVILLIEADWSTAAEKRAHMEADPVLSALRAVKEGRFVTVPFSETLLGMRFADGVETVNNQLAKLP | not soluble
MGSDKIHHHHHHMKLVCAQSDLSTNLSLVNRAVPSRPTHPVLANVLLQADAETNQVSLTAFDLSLGIRTSFNADVWQSGAIALPAKLLVDITSRLPEGEITLDDESATDGTATGEGLIVSLTPKTGKYQLRAMGAEEFPELPLIENTTAIYLTATSLIEGLRGSLFATSGDETKQVLTGVHLTVKQDTLEFAATDGHRLAVVETTNERPLEDNDQQLEVTVPARALRELERMLAHNAASEEPIALYLDQGQVIFAWQNQRLTSRTLEGQYPAYRQLIPRQFERQVTIERRQFLSTLERIAVLADQKNNIVKLTIDSTAQELTLSCEAQEMGSGRESMNAEIAGEDIEIAFNVKYLMEGLKALPSPEIQMHINQNLTPVIFTPLGGLKMTYLAMPVQLRN | not soluble
MGSDKIHHHHHHMKLYAENILLNDGWASKQTITIEQGIITAVDAGKIEGAEIAKGAVIPGMVNCHSHAFQRAFAGFSEQGSEGQDSFWTWRKIMYQFLAQLTELDAKNIAKQLYIEMLKMGYTRVAEFHYLHHDIDGSTYNSSVTTDKSASLATMAQAIFDAAKESGIGLTLLPVLYQHSGFGEQTPSDGQKRFINSTEQFNQLVSDCFTLSEQYSNTNVGIAPHSLRAVDKTSLLSAVKHVRSLDNQAPIHIHISEQQKEVDDCLAHFGQRPVQWLLDNVELDKHWCLIHATHIDEAERKGIIAKEAIAGICPTTEANLGDGIFPTTEFLADKGTIAIGSDSHISVNPIEELRWLEYAQRLIKQQRAILATDEQASVGQNLWQQAAIGGAQSTNSNTGSLAIGKQADLLVLDKDKTKLFASASQQLLDSMIFASQQNPVSDVMVNGVWQIKAQQHVEQEQASDNFANLLVRLSAS | not soluble
MGSDKIHHHHHHMKMSINQIGRSNKVQIEKTEVEISTPDGKMPAFFYQPCERGQKPAVILLMEAFGLTSHIQDVATRIAKEGYVVLTPDLYYRELTNNKFGYEEVEQAMAMMYRLDFGKPIEEDIRAAIAYLKSQSNVFSEKIGVTGFCLGGGLSFLSACKFSDEIAAVASFYGMVLDDWIEAVTNISVPIYLFYGGIDSFIPPERVQQIETRFQELSKEYTLKVYPDADHGFFCHERSSYNRLAAEDSWNELTQFFHRHLQ | not soluble
MGSDKIHHHHHHMKMSWNHQYTNYGSIADDNGDEEKAENSEGAAAEKVEKQHDDDGVVVHEETDGVASSRSSHHDKQKPGETKKSGDGKMDDDDIITTARSSSRRICGSAASSSDSETADDAPLLPDEGPSHAVRLEMPGDKPASPHDRFPKTPLKTL | not soluble
MGSDKIHHHHHHMKNDKNLLQHFSREEREFVEKIMDMCQQVEDTYSYRLTHFLHPRQDEIVCKIANYYQLQTFSSRDLVSTEHSRVIIAPTYYELDIKHFELTALHLSYARKFHTLSHSQVLGTFLNQLGIKREYLGDILIDDERLIVFIDQKFGQIALQSITKVARVPVKGKEEEWTTVRLPIGQEWRSKDVLVSSMRLDKLISVAFNLSRATANKLIEAGHVKLDYVLTEQTSKLVEIGQLISVRRYGRVRLNEFLGFSKQGKIKLKLDIVKT | not soluble
